# Reference: US20230265192A1
# Columns and labels:
# Assay in all cases: cell-based or functional assay
# [1] = target: human FcγRIIa, high-affinity H131 variant, on Jurkat/NFAT-Luc effector cells (human) (UniProt P12318)
# [2] = target: mouse FcγRIV on Jurkat/NFAT-Luc effector cells (mouse)
# [3] = target: mouse FcγRIII on Jurkat/NFAT-Luc effector cells (mouse) (UniProt P08508)
# [4] = target: human FcγRIIa, low-affinity R131 variant, on Jurkat/NFAT-Luc effector cells (human) (UniProt P12318)
# [5] = target: human FcγRIIb on Jurkat/NFAT-Luc effector cells (human) (UniProt P31994)
# Chain of human FcγRIIb on Jurkat/NFAT-Luc effector cells (human) (P31994 43-310): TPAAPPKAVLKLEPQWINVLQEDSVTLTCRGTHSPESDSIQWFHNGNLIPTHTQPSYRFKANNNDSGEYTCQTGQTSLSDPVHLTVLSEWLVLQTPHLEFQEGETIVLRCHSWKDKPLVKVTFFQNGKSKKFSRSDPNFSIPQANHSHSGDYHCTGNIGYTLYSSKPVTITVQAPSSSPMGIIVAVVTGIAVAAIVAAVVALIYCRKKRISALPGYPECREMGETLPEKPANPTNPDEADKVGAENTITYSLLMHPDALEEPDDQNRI
# Chain of mouse FcγRIV on Jurkat/NFAT-Luc effector cells (mouse) (A0A0B4J1G0 21-203): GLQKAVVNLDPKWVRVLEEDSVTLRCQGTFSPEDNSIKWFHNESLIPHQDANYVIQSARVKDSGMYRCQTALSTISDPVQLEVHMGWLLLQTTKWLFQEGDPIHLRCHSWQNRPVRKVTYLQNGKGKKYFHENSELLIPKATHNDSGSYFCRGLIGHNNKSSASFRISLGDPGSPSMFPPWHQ
# Chain of human FcγRIIa, high-affinity H131 variant, on Jurkat/NFAT-Luc effector cells (human) (P12318 34-317, change not shown): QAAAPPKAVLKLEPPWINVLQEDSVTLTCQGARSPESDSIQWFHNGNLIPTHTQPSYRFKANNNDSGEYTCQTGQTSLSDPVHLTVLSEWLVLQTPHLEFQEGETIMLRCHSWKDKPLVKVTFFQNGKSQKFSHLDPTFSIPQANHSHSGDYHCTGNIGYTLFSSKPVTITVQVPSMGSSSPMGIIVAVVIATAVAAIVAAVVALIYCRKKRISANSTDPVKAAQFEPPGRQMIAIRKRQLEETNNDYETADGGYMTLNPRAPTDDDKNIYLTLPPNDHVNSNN
# Chain of human FcγRIIa, low-affinity R131 variant, on Jurkat/NFAT-Luc effector cells (human) (P12318 other isoform, or with tags, fused parts or gaps mutant limits assumed): as the sequence (P12318 34-317, change not shown) above, with H134R counted along it
# Chain of mouse FcγRIII on Jurkat/NFAT-Luc effector cells (mouse) (P08508 31-261): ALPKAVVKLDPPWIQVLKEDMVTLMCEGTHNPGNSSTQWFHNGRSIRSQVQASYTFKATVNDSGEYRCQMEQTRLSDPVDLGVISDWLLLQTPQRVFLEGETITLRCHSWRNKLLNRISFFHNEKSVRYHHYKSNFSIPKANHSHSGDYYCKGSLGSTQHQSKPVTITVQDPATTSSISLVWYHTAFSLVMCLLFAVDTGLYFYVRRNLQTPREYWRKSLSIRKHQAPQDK
substance,measurement,setting,value
Ipilimumab (antibody),"EC50 (µg/mL), FcR reporter bioassay",[1],0.05 µg/mL
same,"Maximum luminescence (RLU), FcR reporter bioassay",[1],973 RLU
same,"EC50 (µg/mL), FcR reporter bioassay",[2],2.21 µg/mL
same,"Maximum luminescence (RLU), FcR reporter bioassay",[2],990 RLU
same,"Maximum luminescence (RLU), FcR reporter bioassay",[3],17500 RLU
same,"EC50 (µg/mL), FcR reporter bioassay",[4],0.21 µg/mL
same,"Maximum luminescence (RLU), FcR reporter bioassay",[4],2640 RLU
same,"EC50 (µg/mL), FcR reporter bioassay",[5],0.17 µg/mL
same,"Maximum luminescence (RLU), FcR reporter bioassay",[5],5800 RLU
